According to PMC7526519 (2020):

What was measured:
[1] = molecular target: SARS-CoV receptor binding domain (RBD), His-tagged (SARS-CoV, UniProt P59594 306-527); assay: SPR
[2] = molecular target: SARS-CoV-2 receptor binding domain (RBD), His-tagged (SARS-CoV-2, UniProt P0DTC2 319-541); assay: SPR

B1: pig ACE2 ectodomain fused with mouse Fc (Fc fusion)
chain: QSTTEELAKTFLEKFNLEAEDLAYQSSLASWNYNTNITDENIQKMNDARAKWSAFYEEQSRIAKTYPLDEIQTLILKRQLQALQQSGTSGLSADKSKRLNTILNTMSTIYSSGKVLDPNNPQECLVLEPGLDEIMENSKDYSRRLWAWESWRAEVGKQLRPLYEEYVVLENEMARANNYEDYGDYWRGDYEVTGTGDYDYSRNQLMEDVERTFAEIKPLYEHLHAYVRAKLMDAYPSRISPTGCLPAHLLGDMWGRFWTNLYPLTVPFGEKPSIDVTEAMVNQSWDAIRIFEEAEKFFVSIGLPNMTQGFWNNSMLTEPGDGRKVVCHPTAWDLGKGDFRIKMCTKVTMDDFLTAHHEMGHIQYDMAYAIQPYLLRNGANEGFHEAVGEIMSLSAATPHYLKALGLLPPDFYEDSETEINFLLKQALTIVGTLPFTYMLEKWRWMVFKGEIPKEQWMQKWWEMKREIVGVVEPLPHDETYCDPACLFHVAEDYSFIRYYTRTIYQFQFHEALCRTAKHEGPLYKCDISNSTEAGQKLLQMLSLGKSEPWTLALENIVGVKTMDVKPLLSYFEPLLTWLKAQNGNSSVGWNTDWTPYADQSIKVRISLKSALGKEAYEWNDNEMYLFRSSIAYAMRNYFSSAKNETIPFGAEDVWVSDLKPRISFNFFVTSPANMSDIIPRSDVEKAISMSRSRINDAFRLDDNTLEFLGIQPTLGPPDEPPVT
Binder B1 has a Kd [1] of 35.8 nM and a Kd [2] of 47.6 nM.

B2: rabbit ACE2 ectodomain fused with mouse Fc (Fc fusion)
chain: QSTIEELAKTFLEKFNQEAEDLSYQSALASWDYNTNITEENVQKMNDAEAKWSAFYEEQSKLAKTYPSQEVQNLTVKRQLQALQQSGSSALSADKSKQLNTILSTMSTIYSTGKVCNQSNPQECFLLEPGLDEIMAKSTDYNERLWAWEGWRSVVGKQLRPLYEEYVVLKNEMARANNYEDYGDYWRADYEAEGADGYDYSRSQLIDDVERTFSEIKPLYEQLHAFVRTKLMDAYPSRISPTGCLPAHLLGDMWGRFWTNLYSLTVPFGQKPNIDVTDTMVNQGWDAERIFKEAEKFFVSVGLPSMTQGFWENSMLTEPGDGRKVVCHPTAWDLGKGDFRIKMCTKVTMDNFLTAHHEMGHIQYDMAYATQPFLLRNGANEGFHEAVGEIMSLSAATPEHLKSIGLLPYDFHEDNETEINFLLKQALTIVGTLPFTYMLEKWRWMVFKGEIPKEQWMQKWWEMKREIVGVVEPMPHDETYCDPAALFHVANDYSFIRYYTRTIYQFQFQEALCQAAQHEGPLHKCDISNSTEAGQKLLNMLRLGRSEPWTLALENVVGAKNMDVRPLLNYFEPLFTWLKEQNRNSFVGWSTEWTPYADQSIKVRISLKTALGDQAYEWNDSEMYLFRSSVAYAMRKYFSEVKNQTILFGEEDVRVSDLKPRISFNFFVTAPNNVNDIIPRNEVEEAISMSRSRINDIFRLDDNSLEFVGIQPTLEPPYESPVP
Binder B2 has a Kd [1] of 74.8 nM and a Kd [2] of 76.2 nM.

B3: raccoon dog ACE2 ectodomain fused with mouse Fc (Fc fusion)
chain: QSTEDLVNTFLEKFNYEAEELSYQSSLASWNYNTNITDENLQKMNNAGAKWSAFYEEQSKLAKTYPLEEIQDSTVKRQLRALQHSGSSVLSADKNQRLNTILNSMSTIYSTGKACNPSNPQECLLLEPGLDDIMENSKDYNERLWAWEGWRSEVGKQLRPLYEEYVALKNEMARANNYEDYGDYWRGDYEEEWENGYNYSRNQLIDDVEHTFTQIMPLYQHLHAYVRTKLMDTYPSYISPTGCLPAHLLGDMWGRFWTNLYPLTVPFGQKPNIDVTNAMVNQSWDARKIFKEAEKFFVSVGLPNMTQGFWENSMLTEPSDSWKVVCHPTAWDLGRGDFRIKMCTKVTMDDFLTAHHEMGHIQYDMAYAAQPFLLRNGANEGFHEAVGEIMSLSAATPNHLKNIGLLPPSFFEDSETEINFLLKQALTIVGTLPFTYMLEKWRWMVFKGEIPKDQWMKTWWEMKRNIVGVVEPVPHDETYCDPASLFHVANDYSFIRYYTRTIYQFQFQEALCQIAKHEGPLHKCDISNSSEAGQKLLEMLKLGKSKPWTYALEIVVGAKNMDVRPLLNYFEPLFTWLKEQNRNSFVGWNTDWSPYADQSIKVRISLKSALGEKAYEWNNNEMYLFRSSIAYAMRQYFSEVKNQTIPFVEDNVWVSDLKPRISFNFFVTSPGNVSDIIPRTEVEEAIRMYRSRINDVFRLDDNSLEFLGIQPTLGPPYEPPVT
With B3 the Kd [1] was 179 nM and the Kd [2] was 96.4 nM.

B4: monkey ACE2 ectodomain fused with mouse Fc (Fc fusion)
chain: QSTIEEQAKTFLDKFNHEAEDLFYQSSLASWNYNTNITEENVQNMNNAGEKWSAFLKEQSTLAQMYPLQEIQNLTVKLQLQALQQNGSSVLSEDKSKRLNTILNTMSTIYSTGKVCNPNNPQECLLLDPGLNEIMEKSLDYNERLWAWEGWRSEVGKQLRPLYEEYVVLKNEMARANHYKDYGDYWRGNYEVNGVDGYDYNRDQLIEDVERTFEEIKPLYEHLHAYVRAKLMNAYPSYISPTGCLPAHLLGDMWGRFWTNLYSLTVPFGQKPNIDVTDAMVNQAWNAQRIFKEAEKFFVSVGLPNMTQGFWENSMLTDPGNVQKVVCHPTAWDLGKGDFRIIMCTKVTMDDFLTAHHEMGHIQYDMAYAAQPFLLRNGANEGFHEAVGEIMSLSAATPKHLKSIGLLSPDFQEDNETEINFLLKQALTIVGTLPFTYMLEKWRWMVFKGEIPKDQWMKKWWEMKREIVGVVEPVPHDETYCDPASLFHVSNDYSFIRYYTRTLYQFQFQEALCQAAKHEGPLHKCDISNSTEAGQKLLNMLKLGKSEPWTLALENVVGAKNMNVRPLLNYFEPLFTWLKDQNKNSFVGWSTDWSPYADQSIKVRISLKSALGDKAYEWNDNEMYLFRSSVAYAMRTYFLEIKHQTILFGEEDVRVADLKPRISFNFYVTAPKNVSDIIPRTEVEEAIRISRSRINDAFRLNDNSLEFLGIQTTLAPPYQSPVT
B4 showed a Kd [1] of 69.1 nM and a Kd [2] of 21.7 nM.
